# In the DeepSol protein solubility set:
# Experiment: soluble on expression in E. coli; label from the status in PepcDB or PDB records
row,Sequence,soluble on expression in E. coli
1,MKKVAIVGLGWLGMPLAMSLSARGWQVTGSKTTQDGVEAARMSGIDSYLLRMEPELVCDSDDLDALMDADALVITLPARRSGPGDEFYLQAVQELVDSALAHRIPRIIFTSSTSVYGDAQGTVKETTPRNPVTNSGRVLEELEDWLHNLPGTSVDILRLAGLVGPGRHPGRFFAGKTAPDGEHGVNLVHLEDVIGAITLLLQAPKGGHIYNICAPAHPARNVFYPQMARLLGLEPPQFRNSLDSGKGKIIDGSRICNELGFEYQYPDPLVMPLE,soluble
2,MKKYNIPVEATLEVIGGKWKVVILCHLTKGTKRTSELKRSMPGITQKMLTQQLRELEDDGVIQRKVYNQVPPKVEYSLTDYGWSLESILDSLCSWGECHLEKEGNTSMLIAEGE,not soluble
3,MKLASYLQENIVVEKNGRFTIPIKKQYRSKVSGTVIDTSSSGATVFMEPKEVGALYEQLDDLLAAESYEVETILYTLTASVLAIEKELHLAMDIMHHYDVLFAKAKYGRSIDGVIPLEHHHHHH,not soluble
4,MKLCGKLANITTVDYGGIACHAGVDRRISLHNFTISLPESGNPMSATFDPDNLRASLLALNVIDPLSLDGQAYQRFYGLAGLGGENVVRSWLGRLDVDGYEIVGQVWLPESPVATLFLFHGFYDHMGLYRHVIEWALTQGFAVISCDLPGHGLSSGSRASINDFAEYQVVLQRLLLEAGSLGLPHPWHLCGQSTGGAIVIDHLLHQGAESPAQGEVILLAPLVRPRAWGWSRFSYRLLKPFVSGIARRFTENSNAPAFLPFLLADPLQPRRLPTAWVGALAQWIVRVESAPRSLRSPIIIQGDADMTVDWSHNLAVLKDKFSQPHILMLGHARHHLANETPELRARYFDFVKGRLG,not soluble
5,MKLDPQTLAHITSATLGNYNRVADDFREGTRDHDVSQNIDALLRHIEGSAPWQILDFGCGPGRDLKTFTAMGHVAVGLDGSERFAEMARAETGCEVFQQNFLELDLPQGRFDGIFANAVLFHIPRQELPRVLRELYATLKPGGVLFSSNPRGQNQEGWQGERYGAYHDLETWRQLLTDAGFAELEHYYRPAGLPRDQQPWLASVWRRLEHHHHHH,not soluble
6,MKLELSYSDHLQLSESLNELGQTTRITQLEPGEGKYTMSFKQSTGIALAEIQSTQPLLYEGWGTTWSVDFNWITPTCHLNDPFGYCEGYEMKETSLGGFNTLNTSPGNSWGKYSNNCSSTACMLDKNILMKMLKECNAAQAIDNLSKARGLDVSSESLYQLKKLTRKDLVRGIMNPTKYYDLIVACLEGGDKRGYRKGLTKNYRLLGEIVQLSHDSRRMSSPMTLSDVCQYLDTGQASLYRVCQDYFGMGIIEMMTQIRLEEARRALLMFKQNEKNHALTVRDVALGYGFKHQGRFSRRYFTSFGELPSQTLDRSQEL,not soluble
7,MKLERILPFSKTLIKQHITPESIVVDATCGNGNDTLFLAEQVPEGHVYGFDIQDLALENTRDKVKDFNHVSLIKDGHENIEHHINDAHKGHIDAAIFNLGYLPKGDKSIVTKPDTTIQAINSLLSLMSIEGIIVLVIYHGHSEGQIEKHALLDYLSTLDQKHAQVLQYQFLNQRNHAPFICAIEKIS,not soluble
8,MKLIGIVGSNADSSYNRLLLQYIGKEFYKMFDLEILEIKDIPMFNQSKDQTNSVLIQNMNRKILQADGVIIATPEHNHTIPAGLKSVLEWLSFKIHPLENKPVMIVGCSYYDQGTSRAQLHLRQILDAPGVNAIVMPGNEFLLGKAKEAFDENGNLIAEGTRQFLESTLQKFVEFIDVISKLEGAKPKDLPEDLHAKGTIETTIEGVDMAADDWVEQAAEAVQAVEGDTYVKLDRGILTVDQLNYFLKSMPMELTYADSNNQFLYYNKKMAAEEMFAKRQPGQVGNPLANCHPPKALKNVEWVIQQLRSGKTDAIRVHVPMHGPDTYVVHNYQAMYDDNGNYAGINEYILDFKPIVDWYLKQTGQELVGGKNVDAVSGASKKEAPETADSVSSASVHEEESATEKPTVDSVSSASIKE,not soluble
9,MKLKLFFHIVLLCFSLPIWAMKTVDVTASPKMDDQARMNLAQEFANKQQWIDVFNIMYPMALEGNITAQSNLGMLYNLGRGTVRDYEKAYWWFSEAAEKGSVKGLNNLGVMYLRGDYVKQNTEQAIKLFERTAQAKDTDAMMMLSNIYRLQNQPEKIIGMAEESRLEHHHHHH,not soluble
10,MKLNSPSRIHMGLIDLNGELGRVDGGVGVALDYPNFQIEGKESSEIELDSKIEIDEKDRENLESRIKNAARNVLDIIGEDGISLKINEAILSHSGLGSGTQVSLSTGKITSLVYGQDLNAETLAKITGRGGTSGIGVAAFETGGFIVDGGHTFGEGKDKIDFRPSSASKDVKPSPVLFRHDFDWDIVLTIPKGEQVCGDREVDIFRKFCPVPSEDVQKICRLVLMKMMPAVIEKDFNSFGMAVNELQNLGFKRAEVGLQKESLKQLLSKLQDVSYSGISSFGPTIYSLGDKDTITEISNEIFDKFGIDGEIISTKANNSGYEIIK,not soluble
11,MKLPDELRQAYQKNARQFSWVFPLETEQTALAIFAAGEKAYQGERFFWQTPKKDFALVGFGYETILKGAETETHQLNNFLKKEAATRFQNMSISGTGALLFGGLPFDTEQTPTEAWGELGEGWFYLPSILFTFSGSRIYGTLNFSGSSEQEVEERWSTLVAQFDRLLATCEELPAVAETKIDKEEVAVTEWLQAVNETVAVLREDGPLKKVVLARQLAVSSPEKIRSNQVLVNLMAQQQNTYLFALEAKDTSFIGATPERLLLGTKETFATACIAGTIKTGQTPEETKTLGAQLLQDRKNTGEHQIVVERLAKELAKMTTSENSIQAPIILENRDVQHLYVPISGQRKPGISFLESVMQLHPTPALGGEPKELAVEWIRQYEPGSRGLYGAPIGWISGNDDSGEFAVALRSGVFAGQQGVLYAGCGIVADSQAELEREETKIKFQPMLRGIGGQV,not soluble
12,MKLTIIRLEKFSDQDRIDLQKIWPEYSPSSLQVDDNHRIYAARFNERLLAAVRVTLSGTEGALDSLRVREVTRRRGVGQYLLEEVLRNNPGVSCWWMADAGVEDRGVMTAFMQALGFTTQQGGWEKCG,soluble
13,MKLTILRLEHFSAQDQIDLGKIWPEYSASSLSVDETHRIYAARFNERLLGAVRVTLSGTQGALDSLRVREITRRRGVGQYLVEEVIRDNPNVSSWWMADVGVEDRSVMAAFMQALGFTAQHDGWEKR,not soluble
14,MKLYIGNKNYSSWSLRAWLMVKKSGIKFDEILLQLDTDSFYQQLQSISPTLKVPTLVDGDITVWDSLSICEYINDSYLSGTAWPQDPKQKAKARSLACEMHSGFNALRNALPMNIRARRYVELSPAVQQDIARVDSIWSQQMAEFAPCQTQGTWLFGQWSIADMMFAPVVMRFFTYEIEVSQASRAYMEYIMSQPQMQAWITAAKAETEIVEADEAGVDR,not soluble
15,MKLYYSPGACSLSPHIALREAGLNFELVQVDLASKKTASGQDYLEVNPAGYVPCLQLDDGRTLTEGPAIVQYVADQVPGKQLAPANGSFERYHLQQWLNFISSELHKSFSPLFNPASSDEWKNAVRQSLNTRLGQVARQLEHAPYLLGDQLSVADIYLFVVLGWSAYVNIDLSPWPSLQAFQGRVGGREAVQSALRAEGLIKE,soluble
16,MKMIQFWFDFASTYSYPAAMQIRQLKDEYRFSLHPFLLGGIFQKQGLNDSPFNAYPVKGQYMWRDLERICQKLDLKFHRPVLFPQNGLLAARIACQYASAPWIFDFICSVYQANFVQNLDIGQPETISQILQNMQLDCNDIIMTSTTDTAKQTLKQNGMIAESLHIFGAPSFVVENELFWGQDRLQDAIDWSQR,not soluble
